Assay [1] has as its target HER2 extracellular domain (coated on magnetic beads) (UniProt P04626). As to the kind of experiment: Lindmo method, magnetic beads coated with HER2 extracellular domain (BSA beads as negative control), paired-label.
In assay [2] the target is Human epidermal growth factor receptor 2 (HER2) on BT474M1 human breast carcinoma cells (human) (UniProt P04626). The assay is described as follows: saturation binding of radiolabeled VHH on BT474M1 cells at 4 C, non-specific binding with 100-fold excess trastuzumab.

As to iso-[^131I]SGMIB-5F7 VHH, in assay [1], the immunoreactive fraction stood at 81.8%. With [^211At]SAGMB-5F7 VHH, the Kd in assay [2] worked out at 4.5 nM. This substance displayed an immunoreactive fraction in assay [1] of 83.5%. Consider [^131I]SGMIB-5F7 VHH, for which the immunoreactive fraction in assay [1] is 84.5%.

The substance iso-[^211At]SAGMB-5F7 VHH gave an immunoreactive fraction in assay [1] of 81.3%.

In general, Kd refers to the constant that tells how readily two partners part at equilibrium.

These data come from patent US20200188541A1.
